In this experiment the target is CHIKV nsP2 protease (Chikungunya virus). Nature of the experiment: BLI. In general terms: BLI is a label-free optical method that tracks binding on a fibre tip over time.

pKd: −log10 of the molar value.

As a reminder, the pKd is −log10 of the Kd, conventionally taken in molar units.

The substance pantinin-1 (peptide) gave a pKd of 5.03.

(Values after doi:10.1101/2025.06.29.662183.)
